In PMC5430508:

Molecular target: 8G-AIDA receptor: eight tandemly repeated protein G C2 domains linked with AIDA, on the surface of Escherichia coli BL21 cells (BL21/8G) (not stated (streptococcal))
Test: ELISA; bacteria coated on poly-L-lysine-treated 96-well plates (10^7 cfu/well added; about 6.7 × 10^6 cfu/well coated), blocked with 5% skim milk; HRP-conjugated goat anti-mouse IgG Fc (1 μg/mL), room temperature, 1 h; ABTS, absorbance at 405 nm

Substance: HRP-conjugated goat anti-mouse IgG Fc (antibody)
- fold of antibody trapped against BL21/1G cells: 18.9 fold
